Several values for one entry are separate records, joined by “and”; a condition that tells them apart may be missing. Equal entries are not always repeated.
B1: Nup53 C-terminal IDR (53C) (domain or fragment)
chain: KKSEEIINNKTSSQTSLSSKDLSNYRKTEGIFEKAKAKAVTSKVRNAEFKVSKNSTSFKNPRRLEIKDGRSLFLRNRGKIHS
modifications: not checked
B2: Nic96 fragment (domain or fragment)
chain: GNNILNSNESRLNVNENNILREKFENYARIVFQFNNSRQANGNFDIANEFISILSSANGTRNAQLLESWKILESMKSKDINIVEVGKQYLEQQFLQYTDNLYKKNMNEGLATNVNKIKSFIDTKLKKADKSWKISNLTVINGVPIWALIFYLLRAGLIKEALQVLVENKANIKKVEQSFLTYFKAYASSKDHGLPVEYSTKLHTEYNQHIKSSLDGDPYRLAVYKLIGRCDLSRKNIPAVTLSIEDWLWMHLMLIKEKDAENDPVYERYSLEDFQNIIISYGPSRFSNYYLQTLLLSGLYGLAIDYTYTFSEMDAVHLAIGLASLKLFKIDSSTRLTKKPKRDIRFANILANYTKSFRYSDPRVAVEYLVLITLNEGPTDVELCHEALRELVLETKEFTVLLGKIGRDGARIPGVIEERQPLLHVRDEKEFLHTITEQAARRADEDGRIYDSILLYQLAEEYDIVITLVNSLLSDTLSASDLDQPLVGPDDNSETNPVLLARRMASIYFDNAGISRQIHVKNKEICMLLLNISSIRELYFNKQWQETLSQMELLDLLPFSDELSARKKAQDFSNLDDNIVKNIPNLLIITLSCISNMIHILNESKYQSSTKGQQIDSLKNVARQCMIYAGMIQYRMPRETYSTLINIDVSL
B3: Nup157 fragment 157N (domain or fragment)
chain: MYSTPLKKRIDYDRETFTASASLGGNRLRNRPRDDQNNGKPNLSSRSFLSERKTRKDVLNKYGEAGNTIESELRDVTTHVKISGLTSSEPLQLASEFVQDLSFRDRNTPILDNPDYYSKGLDYNFSDEVGGLGAFTPFQRQQVTNIPDEVLSQVSNTEIKSDMGIFLELNYCWITSDNKLILWNINNSSEYHCIDEIEHTILKVKLVKPSPNTFVSSVENLLIVATLFDIYILTISFNDRTHELNIFNTGLKVNVTGFNVSNIISYERTGQIFFTGATDGVNVWELQYNCSENLFNSKSNKICLTKSNLANLLPTKLIPSIPGGKLIQKVLEGDAGTEEETISQLEVDQSRGVLHTLSTKSIVRSYLITSNGLVGPVLIDAAHIRRGMNALGVKNSPLLSNRAFKIAKIVSISMCENNDLFLAVITTTGVRLYFKGSISRRSIGSLKLDSVKFPPTSISSSLEQNKSFIIGHHPLNTHDTGPLSTQKASSTYINTTCASTIISPGIYFTCVRKRANSGELSKGITNKALLENKEEHKLYVSAPDYGILKNYGKYVENTALLDTTDEIKEIVPLTRSFNYTSTPQGYANVFASQYSAEPLKVAVLTSNALEIYCYRTPDEVFESLIENPLPFIHSYGLSEACSTALYLACKFNKSEHIKSSALAFFSAGIPGVVEIKPKSSRESGSVPPISQNLFDKSGECDGIVLSPRFYGSALLITRLFSQIWEERVFVFKRASKTEKMDAFGISITRPQVEYYLSSISVLADFFNIHRPSFVSFVPPKGSNAITASDAESIAMNALILLINSIKDALSLINVFYEDIDAFKSLLNTLMGAGGVYDSKTREYFFDLKFHDLFTPNAKTKQLIKEILIEVVNANIASGTSADYIVNVLKERFG
B4: Nup53 fragment 53CTD (domain or fragment)
chain: RNAEFKVSKNSTSFKNPRRLEIKDGRSLFLRNRGKIHS
B5: Nup53 53core (near-intact Nup53 construct encompassing the N- and C-terminal IDRs and the RRM domain) (domain or fragment)
chain: SDLGTVVFDSNEAPPKTSLADWQKEDGIFSSKTDNIEDPNLSSNITFDGKPTATPSPFRPLEKTSRILNFFDKNTKTTPNTASSEASAGSKEGASTNWDDHAIIIFGYPETIANSIILHFANFGEILEDFRVIKDFKKLNSKNMSKSPSLTAQKYPIYTGDGWVKLTYKSELSKSRALQENGIIMNGTLIGCVSYSPAALKQLASLKKSEEIINNKTSSQTSLSSKDLSNYRKTEGIFEKAKAKAVTSKVRNAEFKVSKNSTSFKNPRRLEIKDGRSLFLRNRGKIHS

Experiments:
[1] = target: human Nup35 RRM domain (human); test: SEC-MALS; human Nup35 RRM domain at 15 mg/ml on Superdex 200 10/300 GL in the ITC binding buffer, room temperature
[2] = target: T1, Kap121 (full-length) (Saccharomyces cerevisiae), P32337; test: ITC; 53C·Kap121 forward and reverse titrations at various protein concentrations, global analysis with a two-mode binding model (1:1 and 2:1 53C:Kap121); 20 mM Hepes pH 7.5, 150 mM NaCl, 0.5 mM TCEP; 15°C
T1 chain: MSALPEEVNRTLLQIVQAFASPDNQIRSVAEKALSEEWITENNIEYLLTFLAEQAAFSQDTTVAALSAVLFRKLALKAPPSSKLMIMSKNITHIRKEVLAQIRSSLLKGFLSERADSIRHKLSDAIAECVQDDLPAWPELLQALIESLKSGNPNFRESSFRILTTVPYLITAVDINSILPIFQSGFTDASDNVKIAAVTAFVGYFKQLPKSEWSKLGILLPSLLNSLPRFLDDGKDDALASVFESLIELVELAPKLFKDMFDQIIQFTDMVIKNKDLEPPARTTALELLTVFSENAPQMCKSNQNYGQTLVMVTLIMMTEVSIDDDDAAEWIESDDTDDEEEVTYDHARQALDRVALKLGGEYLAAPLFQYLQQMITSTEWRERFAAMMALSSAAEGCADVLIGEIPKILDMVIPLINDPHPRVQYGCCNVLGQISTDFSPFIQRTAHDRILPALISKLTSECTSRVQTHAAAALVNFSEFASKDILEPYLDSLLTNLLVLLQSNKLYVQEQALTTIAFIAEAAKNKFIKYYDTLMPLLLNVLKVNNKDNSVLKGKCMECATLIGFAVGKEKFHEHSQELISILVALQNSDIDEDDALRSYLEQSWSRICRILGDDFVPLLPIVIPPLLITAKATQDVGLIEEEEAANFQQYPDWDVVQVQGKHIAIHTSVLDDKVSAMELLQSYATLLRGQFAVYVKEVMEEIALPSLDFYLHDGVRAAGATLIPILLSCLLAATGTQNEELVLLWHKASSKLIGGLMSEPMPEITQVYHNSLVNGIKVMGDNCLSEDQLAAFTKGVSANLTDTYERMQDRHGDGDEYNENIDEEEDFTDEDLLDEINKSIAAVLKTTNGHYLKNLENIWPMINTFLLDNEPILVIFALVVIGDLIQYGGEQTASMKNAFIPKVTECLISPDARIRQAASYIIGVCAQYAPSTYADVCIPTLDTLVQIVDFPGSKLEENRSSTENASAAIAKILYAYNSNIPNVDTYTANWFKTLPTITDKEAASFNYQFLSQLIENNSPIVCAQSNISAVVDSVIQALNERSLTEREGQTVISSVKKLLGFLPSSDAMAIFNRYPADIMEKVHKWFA

[3] = target: T2, 53core·Kap121 complex (stoichiometric 53core:Kap121 mixture) (Saccharomyces cerevisiae, UniProt Q03790 1-475; P32337 1-1089); test: ITC; Nic96 titrations into 53core:Kap121 mixtures, global analysis with a multiple-equilibrium model that separates monomeric and dimeric 53core·Kap121 complexes; 15°C; conditions: both partners purified
[4] = target: T3, Nup53 fragment 53NTD (N-terminal IDR) (Saccharomyces cerevisiae); test: ITC; single titrations, single-site 1:1 binding model where fitted; 20 mM Hepes pH 7.5, 150 mM NaCl, 0.5 mM TCEP; 15°C; Kap121 150 μM with Nup53 fragments 15 μM; conditions: both partners purified
T3 chain: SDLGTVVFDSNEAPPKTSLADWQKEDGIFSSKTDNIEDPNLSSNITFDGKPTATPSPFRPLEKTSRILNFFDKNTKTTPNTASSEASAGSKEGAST

[5] = target: B5; test: as above; conditions: both partners purified
[6] = target: T2, 53core·Kap121 complex (stoichiometric …); test: ITC; Nic96 titrated into stoichiometric 53core:Kap121 or 53core:HsKapβ1 mixtures; single-site 1:1 model; apparent constants; 15°C; conditions: both partners purified
[7] = target: 53core·HsKapβ1 complex (stoichiometric 53core:HsKapβ1 mixture) (Saccharomyces cerevisiae | human, UniProt Q03790 1-475; Q14974 1-876); test: as above; conditions: both partners purified
Nup53 fragment 53CTD = target: B4; test: ITC; single titrations, single-site 1:1 binding model where fitted; 20 mM Hepes pH 7.5, 150 mM NaCl, 0.5 mM TCEP; 15°C; Kap121 150 μM with Nup53 fragments 15 μM; conditions: both partners purified
Kap121 (full-length) [8] = target: T4, Kap121 (full-length) (Saccharomyces cerevisiae, UniProt P32337 1-1089); test: as above; conditions: both partners purified
T4 construct: Kap121 (karyopherin), Saccharomyces cerevisiae, full-length; source: E. coli BL21-CodonPlus(DE3)-RIL, purified (HisTrap HP, TEV cleavage, HiTrap Q, Superdex 200); not shown: SUMO-His6, N-terminal, cleaved
T4 sequence (looked up): T1 chain

[9] = target: the molecule itself; test: ITC; dimer to monomers: concentrated 53core injected in 2-μl increments into buffer, three protein concentrations, monomer-dimer equilibrium model; constant printed for 2A ↔ A2; 15°C
[10] = target: the molecule itself; test: as above; remark: listed apart in the source
Kap121 (full-length) [11] = target: T4, Kap121 (full-length); test: ITC; forward and reverse titrations with Kap121 at various protein concentrations, global analysis with a multiple-equilibrium model (53core dimerization, monomer constants fixed at the 53C values); 15°C; conditions: both partners purified

53core·HsKapβ1 complex (stoichiometric 53core:HsKapβ1 mixture), sequence (Q14974 1-442, one chain of several): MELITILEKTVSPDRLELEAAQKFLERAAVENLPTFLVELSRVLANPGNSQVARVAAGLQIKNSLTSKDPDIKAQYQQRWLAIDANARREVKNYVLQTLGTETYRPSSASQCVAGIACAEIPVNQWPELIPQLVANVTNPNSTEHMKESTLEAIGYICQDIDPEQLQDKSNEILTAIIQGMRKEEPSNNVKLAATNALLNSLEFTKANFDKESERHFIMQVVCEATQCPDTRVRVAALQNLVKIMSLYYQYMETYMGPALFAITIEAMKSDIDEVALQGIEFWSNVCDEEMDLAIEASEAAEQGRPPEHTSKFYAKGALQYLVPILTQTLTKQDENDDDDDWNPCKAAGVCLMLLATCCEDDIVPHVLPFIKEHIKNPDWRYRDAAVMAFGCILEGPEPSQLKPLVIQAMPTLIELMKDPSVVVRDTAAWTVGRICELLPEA

## human Nup35 RRM domain (domain or fragment)
[1]
  stoichiometry N: 2

## B1
[2]
  K of the 2:1 mode (2A + B ↔ A2*B): 1.9e+11 M^-2
  KA of the 1:1 mode (A + B ↔ AB): 4.2e+06 M⁻¹
  KA per IDR binding (square root of the 2:1 constant): 440000 M⁻¹
  dH of the 1:1 mode (A + B ↔ AB): -2.7 kcal/mol
  dH of the 2:1 mode (2A + B ↔ A2*B): 4.2 kcal/mol
  stoichiometry N: 2 and 1

## B2
[3]
  KA for the dimeric 53core·Kap121 complexes (A2Bi + C ↔ A2BiC): 120000 M⁻¹
  KA for the monomeric 53core·Kap121 complex (AB + C ↔ ABC): 200000 M⁻¹
  dH for the dimeric 53core·Kap121 complexes (A2Bi + C ↔ A2BiC): -2.5 kcal/mol
  dH for the monomeric 53core·Kap121 complex (AB + C ↔ ABC): -6.7 kcal/mol
[4]
  Ka: 700000 M⁻¹
  stoichiometry N: 1
[5]
  Ka: 990000 M⁻¹
  dH: -4.4 kcal/mol
[6]
  Ka: 130000 M⁻¹
  dH: -5.2 kcal/mol
[7]
  Ka: 100000 M⁻¹
  dH: -5.1 kcal/mol

## B3
Nup53 fragment 53CTD
  Ka: 1.6e+06 M⁻¹
  stoichiometry N: 1
[5]
  Ka: 1.1e+06 M⁻¹
  dH: -10.1 kcal/mol

## B4
Kap121 (full-length) [8]
  Ka: 210000 M⁻¹
  fold weaker than the canonical NLS peptide: ~45 fold
  stoichiometry N: 1

## B5
[9]
  Ka: 10000 M⁻¹
  dH: 6.5 kcal/mol
[10]
  stoichiometry N: 2
Kap121 (full-length) [11]
  KA of the 53core dimer with one Kap121 (A2 + B ↔ A2B): 5.6e+07 M⁻¹
  dH of A2 + 2B ↔ A2B2: -1.3 kcal/mol
  dH of A2 + B ↔ A2B: 16.3 kcal/mol

— article PMC6881172, “Allosteric modulation of nucleoporin assemblies by intrinsically disordered regions” (Science Advances, 2019)
